Laboratory results from the supplement of paper PMC9116672.
± gives the standard deviation of the averaged measurements or the uncertainty stated by the source.

Tests used:
[1] = duplex formation enthalpy ΔH (Van't Hoff fit of HRM Tm); higher = less exothermic duplex formation; settings: temperature for dG: 50 °C, NaCl: 500 mM (unadjusted)
Method: (§1)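 Duplex of the listed DNA strand with its complement, in 1x NNE buffer (500 mM NaCl, pH 7.0) with 1x EvaGreen. ΔH and ΔS come from a Van't Hoff linear fit of 1/Tm against ln(CT/4) over 1-20 uM, using HRM Tm values.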

[2] = duplex formation free energy ΔG50 (Van't Hoff fit of HRM Tm); higher = less stable duplex; settings: temperature for dG: 50 °C, NaCl: 500 mM (unadjusted)
Method: as §1

[3] = duplex formation entropy ΔS (Van't Hoff fit of HRM Tm); higher = smaller entropy loss on duplex formation; settings: temperature for dG: 50 °C, NaCl: 500 mM (unadjusted)
Method: as §1

[4] = duplex melting temperature (HRM, EvaGreen); higher = more stable duplex
Method: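 Listed DNA strand annealed 1:1 with its complementary strand (95 °C 5 min, 0.1 °C/s to 20 °C). Melted in 1x NNE buffer (500 mM NaCl, 10 mM Na2HPO4, 1 mM EDTA, pH 7.0) with 1x EvaGreen on a LightCycler96 (37 to 97 °C, 0.1 °C/s). Tm is the peak of -dF/dT at the stated total duplex concentration; 4 replicates are averaged. PS oligos are non-stereospecific (Rp/Sp mixtures).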

[5] = backbone: PO-PO (both strands phosphodiester DNA)
[6] = backbone: PS-PO (listed strand fully phosphorothioate, complement phosphodiester)
[7] = backbone: PS-PS (both strands fully phosphorothioate)
[8] = duplex concentration 1 µM, backbone: PS-PO (listed strand fully phosphorothioate, complement phosphodiester)
[9] = duplex concentration 1 µM, backbone: PS-PS (both strands fully phosphorothioate)
[10] = duplex concentration 2.5 µM, backbone: PO-PO (both strands phosphodiester DNA)
[11] = duplex concentration 2.5 µM, backbone: PS-PO (listed strand fully phosphorothioate, complement phosphodiester)
[12] = duplex concentration 2.5 µM, backbone: PS-PS (both strands fully phosphorothioate)
[13] = duplex concentration 5 µM, backbone: PO-PO (both strands phosphodiester DNA)
[14] = duplex concentration 5 µM, backbone: PS-PO (listed strand fully phosphorothioate, complement phosphodiester)
[15] = duplex concentration 5 µM, backbone: PS-PS (both strands fully phosphorothioate)
[16] = duplex concentration 7.5 µM, backbone: PO-PO (both strands phosphodiester DNA)
[17] = duplex concentration 7.5 µM, backbone: PS-PO (listed strand fully phosphorothioate, complement phosphodiester)
[18] = duplex concentration 7.5 µM, backbone: PS-PS (both strands fully phosphorothioate)
[19] = duplex concentration 10 µM, backbone: PO-PO (both strands phosphodiester DNA)
[20] = duplex concentration 10 µM, backbone: PS-PO (listed strand fully phosphorothioate, complement phosphodiester)
[21] = duplex concentration 10 µM, backbone: PS-PS (both strands fully phosphorothioate)
[22] = duplex concentration 15 µM, backbone: PO-PO (both strands phosphodiester DNA)
[23] = duplex concentration 15 µM, backbone: PS-PO (listed strand fully phosphorothioate, complement phosphodiester)
[24] = duplex concentration 15 µM, backbone: PS-PS (both strands fully phosphorothioate)
[25] = duplex concentration 20 µM, backbone: PO-PO (both strands phosphodiester DNA)
[26] = duplex concentration 20 µM, backbone: PS-PO (listed strand fully phosphorothioate, complement phosphodiester)
[27] = duplex concentration 20 µM, backbone: PS-PS (both strands fully phosphorothioate)
[28] = duplex concentration 1 µM, backbone: PO-PO (both strands phosphodiester DNA)

Row | Sequence | duplex formation enthalpy ΔH [1, 5] [kcal/mol] | duplex formation enthalpy ΔH [1, 6] [kcal/mol] | duplex formation enthalpy ΔH [1, 7] [kcal/mol] | duplex formation free energy ΔG50 [2, 5] [kcal/mol] | duplex formation free energy ΔG50 [2, 6] [kcal/mol] | duplex formation free energy ΔG50 [2, 7] [kcal/mol] | duplex formation entropy ΔS [3, 5] [cal/mol/K] | duplex formation entropy ΔS [3, 6] [cal/mol/K] | duplex formation entropy ΔS [3, 7] [cal/mol/K] | duplex melting temperature [4, 8] [°C] | duplex melting temperature [4, 9] [°C] | duplex melting temperature [4, 10] [°C] | duplex melting temperature [4, 11] [°C] | duplex melting temperature [4, 12] [°C] | duplex melting temperature [4, 13] [°C] | duplex melting temperature [4, 14] [°C] | duplex melting temperature [4, 15] [°C] | duplex melting temperature [4, 16] [°C] | duplex melting temperature [4, 17] [°C] | duplex melting temperature [4, 18] [°C] | duplex melting temperature [4, 19] [°C] | duplex melting temperature [4, 20] [°C] | duplex melting temperature [4, 21] [°C] | duplex melting temperature [4, 22] [°C] | duplex melting temperature [4, 23] [°C] | duplex melting temperature [4, 24] [°C] | duplex melting temperature [4, 25] [°C] | duplex melting temperature [4, 26] [°C] | duplex melting temperature [4, 27] [°C] | duplex melting temperature [4, 28] [°C]
1 | CTCGGAGGCCCCATTTA | -68.7 ± 2.7 | -66 ± 1.2 | -73.9 ± 2 | -13.2 ± 0.19 | -11.87 ± 0.061 | -11.22 ± 0.074 | -172 ± 7.8 | -167 ± 3.5 | -194 ± 6.1 | 60.53 ± 0.43 | 56.27 ± 0.32 | 69.45 ± 0.55 | 63.65 ± 0.44 | 59.31 ± 0.12 | 72.34 ± 0.17 | 66.33 ± 0.23 | 61.51 ± 0.1 | 73.72 ± 0.22 | 67.63 ± 0.23 | 62.63 ± 0.089 | 74.68 ± 0.39 | 68.67 ± 0.14 | 63.34 ± 0.086 | 76.04 ± 0.34 | 69.97 ± 0.17 | 64.55 ± 0.08 | 76.97 ± 0.28 | 70.91 ± 0.14 | 65.31 ± 0.13 | –
2 | TTGTAGTTGACGTTTGTGATTTAGTGAATT | -186 ± 8.2 | -151 ± 4.2 | -121 ± 2.5 | -23.4 ± 0.65 | -16.9 ± 0.24 | -12.45 ± 0.081 | -503 ± 23 | -414 ± 12 | -335 ± 7.4 | 66.16 ± 0.47 | 57.2 ± 0.68 | 76.626 ± 0.046 | 67.48 ± 0.5 | 59 ± 0.58 | 77.623 ± 0.046 | 68.57 ± 0.46 | 60.27 ± 0.37 | 78.24 ± 0.12 | 69.28 ± 0.39 | 60.98 ± 0.26 | 78.646 ± 0.027 | 69.64 ± 0.24 | 61.54 ± 0.13 | 78.98 ± 0.12 | 70.23 ± 0.23 | 62.29 ± 0.073 | 79.7 | 70.83 ± 0.099 | 62.84 ± 0.14 | 75.58 ± 0.12
3 | TTCGCGGTCTCCATTA | -59.2 ± 4.2 | -65.2 ± 2.1 | -60.9 ± 3 | -12 ± 0.26 | -11.23 ± 0.091 | -10.18 ± 0.084 | -146 ± 12 | -167 ± 6.1 | -157 ± 8.9 | – | 51.49 ± 0.12 | – | 60.46 ± 0.26 | 55.69 ± 0.27 | 68.99 ± 0.35 | 62.978 ± 0.054 | 58.1 ± 0.25 | 70.45 ± 0.55 | 64.448 ± 0.036 | 59.57 ± 0.46 | 71.62 ± 0.38 | 65.33 ± 0.18 | 60.56 ± 0.28 | 73.14 ± 0.38 | 66.71 ± 0.2 | 61.77 ± 0.089 | 74.63 ± 0.43 | 67.75 ± 0.63 | 62.58 ± 0.18 | –
4 | CGACATGTATGGCACAG | -77.2 ± 2 | -84.2 ± 1.3 | -79.1 ± 2.7 | -13.17 ± 0.12 | -11.9 ± 0.052 | -9.881 ± 0.049 | -198 ± 5.8 | -224 ± 3.8 | -214 ± 8.2 | 58.38 ± 0.3 | 50.2 ± 0.26 | 67.76 ± 0.17 | 60.82 ± 0.11 | 53.07 ± 0.18 | 69.89 ± 0.28 | 62.71 ± 0.088 | 55.02 ± 0.11 | 70.97 ± 0.12 | 63.78 ± 0.073 | 56.02 ± 0.081 | 71.86 ± 0.14 | 64.547 ± 0.024 | 56.75 ± 0.13 | 73.04 ± 0.17 | 65.56 ± 0.091 | 57.63 ± 0.092 | 73.85 ± 0.16 | 66.343 ± 0.048 | 58.35 ± 0.083 | 64.55 ± 0.5
5 | AGACATCCCATACGAGCATCCA | -112 ± 7.7 | -124 ± 4.9 | -90.8 ± 2 | -17.5 ± 0.61 | -16.1 ± 0.3 | -12.13 ± 0.08 | -292 ± 22 | -333 ± 14 | -243 ± 6 | 67.6 ± 0.69 | 58.4 ± 0.91 | 75.64 ± 0.58 | 69.1 ± 0.53 | 60.9 ± 0.71 | 77.03 ± 0.46 | 70.2 ± 0.62 | 62.6 ± 0.4 | 78.03 ± 0.27 | 71.19 ± 0.51 | 63.56 ± 0.19 | 79.049 ± 0.057 | 71.87 ± 0.23 | 64.391 ± 0.055 | 79.985 ± 0.077 | 72.68 ± 0.15 | 65.3 ± 0.086 | 80.728 ± 0.069 | 73.314 ± 0.051 | 65.89 ± 0.11 | 74.67 ± 0.5
6 | CTTTTGTGCGGGTAGC | -70.2 ± 3.7 | -67.9 ± 2.4 | -60 ± 2.5 | -12.5 ± 0.21 | -11.07 ± 0.095 | -9.593 ± 0.049 | -179 ± 11 | -176 ± 7.2 | -156 ± 7.6 | 56.1 | 48.71 ± 0.41 | 65.75 ± 0.34 | 59.24 ± 0.32 | 52.48 ± 0.25 | 68.14 ± 0.14 | 61.53 ± 0.35 | 55.08 ± 0.22 | 69.35 ± 0.31 | 62.94 ± 0.29 | 56.37 ± 0.13 | 70.49 ± 0.15 | 63.93 ± 0.083 | 57.22 ± 0.12 | 71.94 ± 0.13 | 65.13 ± 0.068 | 58.45 ± 0.21 | 73.2 ± 0.36 | 65.98 ± 0.35 | 59.6 ± 0.74 | 63.84 ± 0.57
7 | GAACTGCCACTACCAA | -69.8 ± 2 | -70.8 ± 1.6 | -65.1 ± 2.6 | -12.27 ± 0.11 | -11.04 ± 0.059 | -9.573 ± 0.046 | -178 ± 5.8 | -185 ± 4.7 | -172 ± 7.9 | – | 48.68 ± 0.086 | 64.85 ± 0.39 | 58.65 ± 0.087 | 52.19 ± 0.14 | 67.25 ± 0.085 | 60.93 ± 0.068 | 54.589 ± 0.051 | 68.57 ± 0.17 | 62.25 ± 0.15 | 55.833 ± 0.044 | 69.531 ± 0.05 | 63.17 ± 0.12 | 56.65 ± 0.09 | 71 ± 0.09 | 64.25 ± 0.11 | 57.7 ± 0.15 | 71.922 ± 0.013 | 65.26 ± 0.12 | 58.53 ± 0.13 | 63.2
8 | GCTGTGAAACAATGTAG | -82.5 ± 3.5 | -78.8 ± 1.9 | -82.8 ± 2.5 | -12.3 ± 0.16 | -10.46 ± 0.049 | -8.078 ± 0.024 | -217 ± 10 | -211 ± 5.7 | -231 ± 7.8 | 52.85 ± 0.06 | 43.66 ± 0.19 | 62.76 ± 0.31 | 55.41 ± 0.29 | 45.72 ± 0.19 | 64.54 ± 0.42 | 57.39 ± 0.24 | 47.54 ± 0.13 | 65.61 ± 0.42 | 58.44 ± 0.21 | 48.34 ± 0.13 | 66.58 ± 0.4 | 59.19 ± 0.24 | 49.09 ± 0.059 | 67.8 ± 0.33 | 60.21 ± 0.11 | 50.25 ± 0.24 | 68.65 ± 0.32 | 61.12 ± 0.092 | 51.09 ± 0.3 | 60.4 ± 1.3
9 | GATCTCTCTATCATCGTTTATTGGGTAT | -141 ± 12 | -122 ± 3.9 | -109 ± 3 | -18.9 ± 0.91 | -14.3 ± 0.18 | -11.5 ± 0.081 | -377 ± 36 | -335 ± 11 | -301 ± 9 | 62.69 ± 0.48 | 55.1 ± 0.83 | 73.89 ± 0.35 | 64.3 ± 0.58 | 57.06 ± 0.4 | 74.81 ± 0.38 | 65.57 ± 0.42 | 58.33 ± 0.34 | 75.52 ± 0.2 | 66.23 ± 0.5 | 59.33 ± 0.081 | 76.276 ± 0.075 | 66.83 ± 0.22 | 59.89 ± 0.23 | 77.239 ± 0.047 | 67.61 ± 0.095 | 60.59 ± 0.19 | 77.914 ± 0.069 | 68.11 ± 0.096 | 61.27 ± 0.12 | 73.08 ± 0.33
